This passage reports Relative binding activity results from patent US20190106510A1 (CELLDEX THERAPEUTICS, published 2019).

The target of assay [1] is T1, recombinant KIT D4/D5 (human, UniProt P10721 26-519).
T1 construct: also called recombinant c-Kit Ig-like domains D4/D5; recombinant polypeptide of the D4/D5 region of human KIT
Briefly: direct binding ELISA, plate-coated recombinant KIT D4/D5; assay #2 (supernatant). The method, then:
(§1) The binding affinity of the anti-KIT antibodies to the target antigen KIT Ig-like domains D4/D5 was assessed by direct binding ELISA. […] Bound antibody was detected with anti-human Ig-HRP followed by detection using TMB substrate.
In general terms: An ELISA detects its analyte on a solid surface through an enzyme-linked reagent.

Assay [2] has as its target T1, recombinant KIT D4/D5. Briefly: direct binding ELISA, plate-coated recombinant KIT D4/D5; assay #1 (supernatant). The procedure: as §1

T1 sequence (P10721 other isoform, or with tags, fused parts or gaps limits assumed): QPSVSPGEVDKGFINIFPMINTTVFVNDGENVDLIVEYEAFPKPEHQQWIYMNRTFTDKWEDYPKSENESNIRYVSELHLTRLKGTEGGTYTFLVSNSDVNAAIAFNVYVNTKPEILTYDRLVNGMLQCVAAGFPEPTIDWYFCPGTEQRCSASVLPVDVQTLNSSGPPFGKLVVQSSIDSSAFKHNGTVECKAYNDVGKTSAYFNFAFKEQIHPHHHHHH

B1: Hum1 (antibody, V domains shown)
VH: QVQLVQSGAELKKPGASVKLSCKASGYTFTDYYINWVKQAPGKGLEWIARIYPGSGNTYYNEKFKGRATLTAEKSTSTAYMQLSSLRSEDSAVYFCARGVYYFDYWGQGTTVTVSS
VL: DIVMTQSPSFLSASVGDRVTITCKASQNVRTNVAWYQQKPGKAPKALIYSASYRYSGVPDRFTGSGSGTDFTLTISSLQSEDFADYFCQQYNSYPRTFGGGTKVEIK
notes: Variable regions cloned into expression vectors for human IgG1 VH chains and human V kappa chains
For B1, the Relative binding activity with recombinant KIT D4/D5 [1] was 0.64 relative to chimeric antibody 37C (normalized EC50).

B2: Hum7 (antibody, V domains shown)
VH: QVQLVQSGAEVKKPGASVKLSCKASGYTFTDYYINWVKQAPGKGLEWIARIYPGSGNTYYNEKFKGRATLTAEKSTSTAYMQLSSLRSEDTAVYFCARGVYYFDYWGQGTTVTVSS
VL: DIVMTQSPSSLSASVGDRVTITCKASQNVRTNVAWYQQKPGKAPKALIYSASYRYSGVPDRFTGSGSGTDFTLTISSLQPEDFADYFCQQYNSYPRTFGGGTKVEIK
As to B2, the Relative binding activity with recombinant KIT D4/D5 [1] is 0.8 relative to chimeric antibody 37C (normalized EC50); with recombinant KIT D4/D5 [2], 1.12 relative to chimeric antibody 37C (normalized EC50).

B3: Hum6 (antibody, V domains shown)
VH: QVQLVQSGAELKKPGASVKLSCKASGYTFTDYYINWVKQAPGKGLEWIARIYPGSGNTYYNEKFKGRATLTAEKSTSTAYMQLSSLRSEDSAVYFCARGVYYFDYWGQGTTVTVSS
VL: DIVMTQSPSSLSASVGDRVTITCKASQNVRTNVAWYQQKPGKAPKALIYSASYRYSGVPDRFTGSGSGTDFTLTISSLQPEDFADYFCQQYNSYPRTFGGGTKVEIK
Turning to B3, the Relative binding activity in the assay with recombinant KIT D4/D5 [1] is 0.7 relative to chimeric antibody 37C (normalized EC50); with recombinant KIT D4/D5 [2], 1.15 relative to chimeric antibody 37C (normalized EC50).

B4: Hum11 (antibody, V domains shown)
VH: QVQLVQSGAELKKPGASVKLSCKASGYTFTDYYINWVKQAPGKGLEWIARIYPGSGNTYYNEKFKGRATLTAEKSTSTAYMQLSSLRSEDSAVYFCARGVYYFDYWGQGTTVTVSS
VL: DIVMTQSPSSLSASVGDRVTITCKASQNVRTNVAWYQQKPGKAPKALIYSASYRYSGVPDRFSGSGSGTDFTLTISSLQPEDFADYFCQQYNSYPRTFGGGTKVEIK
For the molecule B4, in the assay with recombinant KIT D4/D5 [1], the Relative binding activity is 0.74 relative to chimeric antibody 37C (normalized EC50).

B5: Hum2 (antibody, V domains shown)
VH: QVQLVQSGAEVKKPGASVKLSCKASGYTFTDYYINWVKQAPGKGLEWIARIYPGSGNTYYNEKFKGRATLTAEKSTSTAYMQLSSLRSEDTAVYFCARGVYYFDYWGQGTTVTVSS
VL: DIVMTQSPSFLSASVGDRVTITCKASQNVRTNVAWYQQKPGKAPKALIYSASYRYSGVPDRFTGSGSGTDFTLTISSLQSEDFADYFCQQYNSYPRTFGGGTKVEIK
B5: the Relative binding activity with recombinant KIT D4/D5 [1] was 0.79 relative to chimeric antibody 37C (normalized EC50).

B6: Hum5 (antibody, V domains shown)
VH: QVQLVQSGAEVKKPGASVKVSCKASGYTFTDYYINWVRQAPGKGLEWIARIYPGSGNTYYNEKFKGRVTITADKSTSTAYMELSSLRSEDTAVYFCARGVYYFDYWGQGTTVTVSS
VL: DIVMTQSPSFLSASVGDRVTITCKASQNVRTNVAWYQQKPGKAPKALIYSASYRYSGVPDRFTGSGSGTDFTLTISSLQSEDFADYFCQQYNSYPRTFGGGTKVEIK
B6: the Relative binding activity in the assay with recombinant KIT D4/D5 [1] is 0.93 relative to chimeric antibody 37C (normalized EC50).

B7: Hum12 (antibody, V domains shown)
VH: QVQLVQSGAEVKKPGASVKLSCKASGYTFTDYYINWVKQAPGKGLEWIARIYPGSGNTYYNEKFKGRATLTAEKSTSTAYMQLSSLRSEDTAVYFCARGVYYFDYWGQGTTVTVSS
VL: DIVMTQSPSSLSASVGDRVTITCKASQNVRTNVAWYQQKPGKAPKALIYSASYRYSGVPDRFSGSGSGTDFTLTISSLQPEDFADYFCQQYNSYPRTFGGGTKVEIK
As for B7, the Relative binding activity in the assay with recombinant KIT D4/D5 [1] is 0.72 relative to chimeric antibody 37C (normalized EC50); with recombinant KIT D4/D5 [2], 1.23 relative to chimeric antibody 37C (normalized EC50).

B8: Hum3 (antibody, V domains shown)
VH: QVQLVQSGAEVKKPGASVKLSCKASGYTFTDYYINWVRQAPGKGLEWIARIYPGSGNTYYNEKFKGRATLTADKSTSTAYMQLSSLRSEDTAVYFCARGVYYFDYWGQGTTVTVSS
VL: DIVMTQSPSFLSASVGDRVTITCKASQNVRTNVAWYQQKPGKAPKALIYSASYRYSGVPDRFTGSGSGTDFTLTISSLQSEDFADYFCQQYNSYPRTFGGGTKVEIK
Turning to B8, the Relative binding activity with recombinant KIT D4/D5 [1] is 0.88 relative to chimeric antibody 37C (normalized EC50).
